Values joined by “and” are separate entries in the source; they are usually repeats but may differ in a detail not shown here. Equal values may be shown once.
Assay: Phase 1 (1a/1b) pharmacokinetics: plasma concentrations after single IV dose (validated direct fluorescence reader assay), noncompartmental analysis
Assay type: in vivo, human
Details: Phase 1a
Excerpt: Phase 1 is a single-Principal Investigator, non-randomized, open-label, single-arm, cross-sectional study to evaluate the safety, PK profile, and imaging feasibility of Compound 1 in patients with solid cancers who require surgical excision. The main purpose of this study was to investigate the safety, PK, and feasibility of Compound 1 as an intra-operative optical imaging agent to detect tumors and metastatic lymph nodes in solid cancers. The study was intended to investigate the optimal dose range of Compound 1 for an adequate TBR and CNR of fluorescence obtained intraoperatively at 24 (±8) hours post dosing and with ex vivo specimens using ICG compatible cameras and imaging devices.
Phase 1 enrolled 30 patients with solid cancers (HNSCC, breast cancer, esophageal cancer, or colorectal cancer) who have a biopsy-confirmed diagnosis of respective tumor types and are scheduled to undergo surgical resection of the tumor. The study design included a standard 3+3 design for the dose-escalation portion (Phase 1a; N=18 maximum) followed by a dose-expansion portion (Phase 1b; N=15). All patients received a single I.V. dose of Compound 1, followed by routine surgery approximately 24 hours after infusion of Compound 1.
Phase 1a was a dose-finding study performed in 5 cohorts of 3 patients each. The dose levels evaluated were […], and 1.2 mg/kg, in this sequence. Inter-cohort dose escalation took place after the last patient in the previous cohort completed the Day 10 safety assessment. Safety, PK, and imaging feasibility were evaluated in both the Phase 1a and 1b portions of the study. Patient safety is assessed during the study and for up to 10 days post-dose.
Study design: Single Compound 1 IV dose was administered as a 1-5 minute IV infusion to patients in five cohorts (0.1, 0.3, 0.5, 0.8, and 1.2 mg/kg) with three patients per cohort in Phase 1a and 15 patients at a dose of 1.2 mg/kg in Phase 1b. Patient demographic information including tumor types is presented in Table 4 and 5 for Phase 1a and Table 5 for Phase 1b. Intertek Pharmaceutical Services (San Diego, Calif.) determined Compound 1 plasma concentrations using a validated direct fluorescence reader assay. Pacific BioDevelopment (Davis, Calif.) performed the PK analysis.
Sample collection: Blood samples were collected prior to infusion and at 10 minutes and 0.5, 1, 3, 8, 24, 48, 72, and 240 hours after infusion.
Analysis: Plasma concentration versus time profiles were generated for each patient. Pharmacokinetic parameters were estimated using Phoenix WinNonlin (version 8.0). According to SOP, concentrations reported as BQL were set to 0 except for the 0.5 h sample for subject #ON1102, which was set to LLOQ/2 ([…] value used in parameter calculations) and the 24 and 48 h samples.
If the coefficient of determination for the terminal slope estimation was less than 0.8, T1/2 was not reported (NR). AUC extrapolated to infinity is not reported for any data set because in all cases the % extrapolated AUC was greater than 20% and thus the AUCinf estimate would not be reliable. The concentration at 10 minutes, the first time point measured (C10m), was also reported for each patient.
The area under the plasma concentration versus time curves from dosing to the last time point with a measurable concentration (AUClast) was estimated by the linear trapezoid method. The last three or more time points were used to estimate the elimination rate constant (λz) which was used to estimate the terminal-phase half-life (T1/2) and AUC from zero to infinity (AUCINF) from the following equations: […]

[1] = 0.5 mg/kg single IV, individual subject
[2] = 0.8 mg/kg single IV, individual subject
[3] = 1.2 mg/kg single IV, individual subject

## PEO90-140-b-P(DBA60-150-r-ICG0-3-r-AMA0-3) [Compound 1]
[1]
  Cmax: 22700 ng/mL and 17100 ng/mL and 14000 ng/mL
  Tmax: 3.00 h and 0.500 h
0.5 mg/kg single IV, mean
  AUC0-24 hr: 289 µg·h/mL
  AUCall: 835 µg·h/mL
  AUClast: 410 µg·h/mL
  C10 m: 17.3 µg/mL
  Cmax: 17900 ng/mL
  Tmax: 2.17 h
0.5 mg/kg single IV, median
  AUC0-24 hr: 314 µg·h/mL
  AUCall: 314 µg·h/mL
  AUClast: 160 µg·h/mL
  C10 m: 16.2 µg/mL
  Cmax: 17100 ng/mL
  Tmax: 3.00 h
0.500 mg/kg, 0.170 hr, individual subject
  Plasma Conc: 22.0 µg/mL and 16.2 µg/mL and 13.6 µg/mL
0.500 mg/kg, 0.170 hr, mean
  Plasma Conc: 17.3 µg/mL
0.500 mg/kg, 0.500 hr, individual subject
  Plasma Conc: 16.7 µg/mL and 15.9 µg/mL and 14.0 µg/mL
0.500 mg/kg, 0.500 hr, mean
  Plasma Conc: 15.5 µg/mL
0.500 mg/kg, 1.00 hr, individual subject
  Plasma Conc: 15.8 µg/mL and 13.8 µg/mL and 12.6 µg/mL
0.500 mg/kg, 1.00 hr, mean
  Plasma Conc: 14.1 µg/mL
0.500 mg/kg, 3.00 hr, individual subject
  Plasma Conc: 22.7 µg/mL and 17.1 µg/mL and 11.9 µg/mL
0.500 mg/kg, 3.00 hr, mean
  Plasma Conc: 17.2 µg/mL
0.500 mg/kg, 8.00 hr, individual subject
  Plasma Conc: 19.3 µg/mL and 14.6 µg/mL and 13.9 µg/mL
0.500 mg/kg, 8.00 hr, mean
  Plasma Conc: 15.9 µg/mL
0.500 mg/kg, 24.0 hr, individual subject
  Plasma Conc: BQL (BQL (<10 μg/mL), set = 0 for PK analysis) (2×) and 12.4 μg/mL
0.500 mg/kg, 24.0 hr, mean
  Plasma Conc: 4.13 µg/mL
0.500 mg/kg, 48.0 hr, individual subject
  Plasma Conc: BQL (BQL (<10 μg/mL), set = 0 for PK analysis) (2×) and 14.0 μg/mL
0.500 mg/kg, 48.0 hr, mean
  Plasma Conc: 4.67 µg/mL
0.500 mg/kg, 72.0 hr, individual subject
  Plasma Conc: BQL (BQL (<10 μg/mL), set = 0 for PK analysis) (2×) and 12.0 μg/mL
0.500 mg/kg, 72.0 hr, mean
  Plasma Conc: 4.00 µg/mL
0.500 mg/kg, 240 hr, individual subject
  Plasma Conc: BQL (BQL (<10 μg/mL), set = 0 for PK analysis)
0.500 mg/kg, 240 hr, mean
  Plasma Conc: 0.00 µg/mL
0.8 mg/kg
  Mean AUC0-24h: 383 µg·h/mL
  Mean C10: 19.8 µg/mL
  Mean terminal-phase half-life: 79.0 h
[2]
  AUC0-24 hr: 416 µg·h/mL and 354 µg·h/mL and 380 µg·h/mL
  AUCall: 905 µg·h/mL and 518 µg·h/mL and 1790 µg·h/mL
  AUClast: 756 µg·h/mL and 354 µg·h/mL and 927 µg·h/mL
  C10 m: 21.7 µg/mL and 19.6 µg/mL and 18.2 µg/mL
  Cmax: 23000 ng/mL and 19600 ng/mL and 18200 ng/mL
  T1/2: 74.5 h and 83.4 h
  Tmax: 1.00 h and 0.170 h
0.8 mg/kg single IV, mean
  AUC0-24 hr: 383 µg·h/mL
  AUCall: 1070 µg·h/mL
  AUClast: 679 µg·h/mL
  C10 m: 19.8 µg/mL
  Cmax: 20300 ng/mL
  T1/2: 79.0 h
  Tmax: 0.447 h
0.8 mg/kg single IV, median
  AUC0-24 hr: 380 µg·h/mL
  AUCall: 905 µg·h/mL
  AUClast: 756 µg·h/mL
  C10 m: 19.6 µg/mL
  Cmax: 19600 ng/mL
  T1/2: 79.0 h
  Tmax: 0.170 h
0.800 mg/kg, 0.170 hr, individual subject
  Plasma Conc: 21.7 µg/mL and 19.6 µg/mL and 18.2 µg/mL
0.800 mg/kg, 0.170 hr, mean
  Plasma Conc: 19.8 µg/mL
0.800 mg/kg, 0.500 hr, individual subject
  Plasma Conc: 19.3 µg/mL and 17.6 µg/mL and 17.1 µg/mL
0.800 mg/kg, 0.500 hr, mean
  Plasma Conc: 18.0 µg/mL
0.800 mg/kg, 1.00 hr, individual subject
  Plasma Conc: 23.0 µg/mL and 18.2 µg/mL and 18.0 µg/mL
0.800 mg/kg, 1.00 hr, mean
  Plasma Conc: 19.7 µg/mL
0.800 mg/kg, 3.00 hr, individual subject
  Plasma Conc: 20.0 µg/mL and 14.4 µg/mL and 17.6 µg/mL
0.800 mg/kg, 3.00 hr, mean
  Plasma Conc: 17.3 µg/mL
0.800 mg/kg, 8.00 hr, individual subject
  Plasma Conc: 16.7 µg/mL and 15.1 µg/mL and 16.6 µg/mL
0.800 mg/kg, 8.00 hr, mean
  Plasma Conc: 16.1 µg/mL
0.800 mg/kg, 24.0 hr, individual subject
  Plasma Conc: 16.0 μg/mL and 13.7 μg/mL (2×)
0.800 mg/kg, 24.0 hr, mean
  Plasma Conc: 14.5 µg/mL
0.800 mg/kg, 48.0 hr, individual subject
  Plasma Conc: 12.4 μg/mL and BQL (BQL (<10 μg/mL), set = 0 for PK analysis) and 10.8 μg/mL
0.800 mg/kg, 48.0 hr, mean
  Plasma Conc: 7.73 µg/mL
0.800 mg/kg, 72.0 hr, individual subject
  Plasma Conc: BQL (BQL (<10 μg/mL), set = 0 for PK analysis) (2×) and 10.3 μg/mL
0.800 mg/kg, 72.0 hr, mean
  Plasma Conc: 3.43 µg/mL
0.800 mg/kg, 240 hr, individual subject
  Plasma Conc: BQL (BQL (<10 μg/mL), set = 0 for PK analysis)
0.800 mg/kg, 240 hr, mean
  Plasma Conc: 0.00 µg/mL
1.2 mg/kg
  Mean AUC0-24h: 495 µg·h/mL
  Mean C10: 31.7 µg/mL
  Mean terminal-phase half-life: 36.5 h
[3]
  AUC0-24 hr: 348 µg·h/mL and 563 µg·h/mL and 574 µg·h/mL
  AUCall: 348 µg·h/mL and 1160 µg·h/mL and 1020 µg·h/mL
  AUClast: 184 µg·h/mL and 970 µg·h/mL and 891 µg·h/mL
  C10 m: 28.0 µg/mL and 34.1 µg/mL and 33.0 µg/mL
  Cmax: 28000 ng/mL and 34100 ng/mL and 33000 ng/mL
  T1/2: 32.5 h and 46.5 h and 30.6 h
  Tmax: 0.170 h

Source: patent US20230025280A1, “PH RESPONSIVE COMPOSITIONS, FORMULATIONS, AND METHODS OF IMAGING A TUMOR” (ONCONANO MEDICINE, INC, priority 2019, published 2023)
